Experimental data published in US20100322937A1.

Tests used:
[1] = biological target: wtEGFR: full-length human EGFR with FLAG tag after the leader, on BaF/3 cells (human) (UniProt P00533); test: FACS median fluorescence, wtEGFR-BaF/3 cells preincubated with EGF (10 ng/ml, 4 C, 15 min)
[2] = biological target: EGFR 273-621 C287R, yeast surface displayed (UniProt P00533); test: from titration on yeast surface displayed fragments
[3] = biological target: EGFR 273-621 E293K, yeast surface displayed (UniProt P00533); test: as above
[4] = biological target: wtEGFR: full-length human EGFR with FLAG tag after the leader, on BaF/3 cells (human) (UniProt P00533); test: FACS median fluorescence, wtEGFR-BaF/3 cells preincubated with mAb[…] (10 µg/ml, 37 C, 1 hr)
[5] = biological target: wtEGFR: full-length human EGFR with FLAG tag after the leader, on BaF/3 cells (human) (UniProt P00533); test: FACS, wtEGFR-BaF/3 cells after mock preincubation, antibody at 10 µg/ml
[6] = biological target: EGFR 273-621 C287R, yeast surface displayed (UniProt P00533); test: titration on yeast surface displayed fragment, flow cytometry, global fit of three data sets
[7] = biological target: wild-type EGFR 273-621 (C283A template), yeast surface displayed, C-terminal c-myc tag (UniProt P00533); test: as above

monoclonal antibody 806 (mAb 806), murine IgG2b anti-EGFR, sequence (VH): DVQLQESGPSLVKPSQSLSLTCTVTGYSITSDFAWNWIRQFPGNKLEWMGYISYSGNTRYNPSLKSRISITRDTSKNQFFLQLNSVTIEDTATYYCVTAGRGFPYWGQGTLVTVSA
monoclonal antibody 806 (mAb 806), murine IgG2b anti-EGFR, sequence (VL): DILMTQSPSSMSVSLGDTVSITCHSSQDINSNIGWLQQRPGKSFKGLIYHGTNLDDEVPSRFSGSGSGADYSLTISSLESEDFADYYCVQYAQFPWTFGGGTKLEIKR

Substance “monoclonal antibody 806 (mAb 806), murine IgG2b anti-EGFR” has a change (%) in antibody reactivity after preincubation [1] of -48%, a ΔΔG compared to wild-type [2] of 2.4 kcal/mol and a ΔΔG compared to wild-type [3] of 5.7 kcal/mol. For the same substance, the change (%) in antibody reactivity after preincubation [4] was 163%, the median fluorescence [5] was 7 and the Kd [6] was 127 nM. For the same substance, the Kd [7] was 2.13 nM.
Substance “monoclonal antibody 528 (mAb 528), IgG2a anti-EGFR” has a change (%) in antibody reactivity after preincubation [1] of -23%, a change (%) in antibody reactivity after preincubation [4] of -3% and a median fluorescence [5] of 112.
